For this assay, the target named is Fc neonatal receptor (FcRn) (human (endogenous in HEC-1A)) (UniProt P55899).
Sequence of UniProt P55899 (P55899 whole entry, looked up, tested part not stated): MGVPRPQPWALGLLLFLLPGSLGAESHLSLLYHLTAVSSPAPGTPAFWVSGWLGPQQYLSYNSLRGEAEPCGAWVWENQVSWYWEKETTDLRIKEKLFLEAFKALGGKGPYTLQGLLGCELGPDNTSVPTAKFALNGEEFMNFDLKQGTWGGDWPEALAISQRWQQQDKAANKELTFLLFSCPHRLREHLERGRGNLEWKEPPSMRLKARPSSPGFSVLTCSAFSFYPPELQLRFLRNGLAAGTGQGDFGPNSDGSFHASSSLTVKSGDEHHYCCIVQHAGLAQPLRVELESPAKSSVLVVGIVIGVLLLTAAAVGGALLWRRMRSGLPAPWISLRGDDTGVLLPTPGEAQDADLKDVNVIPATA

Substance mAb VRC01, IgG1 (antibody) returned a transcytosis of IgG alone (50 µg/ml) across HEC-1A cells, IgG in subnatant fluid by ELISA after 12 hours; about 0.4% at pH 7.4 of 1.3%.

These data come from PMC3836734.
